Results on one substance are retold here after patent WO2011147762A2.

Assay [1] concerns the target ED-B fibronectin antigen protein (recombinant), bound to CNBr activated sepharose 4B (UniProt P02751). In words: ED-B sepharose column, % of total radioactivity bound; Study A; sodium thiosulfate 5 mg/mL; day 0.
The target is the same in assay [2]. As to the kind of experiment: ED-B sepharose column, % of total radioactivity bound; Study A; sodium thiosulfate 25 mg/mL; day 1.
Assay [3] has the same target. As to the kind of experiment: ED-B sepharose column, % of total radioactivity bound; Study A; methionine 10 mg/mL; day 0.

131I L19-SIP (radioiodinated L19 SIP homodimer), sequence (chain): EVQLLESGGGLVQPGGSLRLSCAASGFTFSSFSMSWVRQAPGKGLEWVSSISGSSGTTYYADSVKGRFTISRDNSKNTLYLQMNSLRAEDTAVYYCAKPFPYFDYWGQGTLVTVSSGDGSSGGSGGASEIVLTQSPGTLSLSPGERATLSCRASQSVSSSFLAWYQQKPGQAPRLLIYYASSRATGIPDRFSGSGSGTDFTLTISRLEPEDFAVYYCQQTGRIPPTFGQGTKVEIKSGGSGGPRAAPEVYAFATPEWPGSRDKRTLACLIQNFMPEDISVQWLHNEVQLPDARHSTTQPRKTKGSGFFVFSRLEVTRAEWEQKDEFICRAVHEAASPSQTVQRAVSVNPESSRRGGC
131I L19-SIP (radioiodinated L19 SIP homodimer), sequence (chain): as above
UniProt P02751, sequence (P02751 1266-1356 limits assumed): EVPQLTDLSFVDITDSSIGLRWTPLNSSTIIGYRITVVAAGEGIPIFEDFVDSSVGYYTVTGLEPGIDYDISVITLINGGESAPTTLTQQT

Take “131I L19-SIP (radioiodinated L19 SIP homodimer)”: the Immunoreactivity (%) in assay [1] came to 97.3%; in assay [2] it was 95%; in assay [3] it was 96.6%.
